The results in this text go back to article PMC7368059.

The assay has as its target full length La Crosse virus L protein (RNA-dependent RNA polymerase) (La Crosse virus (strain LACV/mosquito/1978)) (UniProt A5HC98). In words: crystal structure; LACV-L FL with 3' (1-16) and 5' (9-16) vRNA at 5 mg/ml, 5' (1-10) vRNA soaked in; 100 mM Tris pH 8.0, 100 mM NaCl, 8% PEG 4000; space group C2, 4.0 Å; two L protein complexes per asymmetric unit.

Usually stoichiometry N stands for the number of molecules, sites or subunits per partner or assembly. The substance “full length La Crosse virus L protein (RNA-dependent RNA polymerase) (from UniProt A5HC98 1-2263) (enzyme)” gave a stoichiometry N of 2.
